According to patent US20230295310A1 (ABCELLERA BIOLOGICS, published 2023):
Positions count from the first letter of the chain named.

B1: GOMP001_bsAb_016 (bispecific antibody, human IgG1, kappa, L234A L235A)
heavy 1: QVQLVESGGGVVQPGRSLRLSCAASGFTFSGYGMHWVRYAPGKGLDWVAIIYYNGNNKYYADRVKGRFTISRDNSKNTLYLQMNSLRAEDTAVYYCARGGGYNWFDPWGRGTLVIVSSASTKGPSVFPLAPSSKSTSGGTAALGCLVKDYFPEPVTVSWNSGALTSGVHTFPAVLQSSGLYSLSSVVTVPSSSLGTQTYICNVNHKPSNTKVDKKVEPKSCDKTHTCPPCPAPEAAGGPSVFLFPPKPKDTLMISRTPEVTCVVVDVSHEDPEVKFNWYVDGVEVHNAKTKPREEQYNSTYRVVSVLTVLHQDWLNGKEYKCKVSNKALPAPIEKTISKAKGQPRRPRVYTLPPSREEMTKNQVSLVCLVKGFYPSDIAVEWESNGQPENNYKTTPPVLDSDGSFFLYSVLTVDKSRWQQGNVFSCSVMHEALHNHYTQKSLSLSPG
light 1: not shown
heavy 2: QVQLVQSGAEVKKPGASVKVSCKASGYTFTSHWMHWVRYAPGQGLEWIGEFNPSNGRTNYNEKFKSKATMTVDTSTNTAYMELSSLRSEDTAVYYCASRDYDYDGRYFDYWGRGTLVTVSSASTKGPSVFPLAPSSKSTSGGTAALGCLVKDYFPEPVTVSWNSGALTSGVHTFPAVLQSSGLYSLSSVVTVPSSSLGTQTYICNVNHKPSNTKVDKKVEPKSCDKTHTCPPCPAPEAAGGPSVFLFPPKPKDTLMISRTPEVTCVVVDVSHEDPEVKFNWYVDGVEVHNAKTKPREEQYNSTYRVVSVLTVLHQDWLNGKEYKCKVSNKALPAPIEKTISKAKGQPRRPRVYTLPPSREEMTKNQVSLVCLVKGFYPSDIAVEWESNGQPENNYKTTPPVLDSDGSFFLYSVLTVDKSRWQQGNVFSCSVMHEALHNHYTQKSLSLSPG
light 2: DIQMTQSPSSLSASVGDRVTITCSASSSVTYMYWYQRKPGDAPKLLIYDTSNLASGVPSRFSGSGSGTDYTFTISSLQPEDIATYYCQQWSSHIFTFGQGTKVEIKRTVAAPSVFIFPPSDEQLKSGTASVVCLLNNFYPREAKVQWKVDNALQSGNSQESVTEQDSKDSTYSLSSTLTLSKADYEKHKVYACEVTHQGLSSPVTKSFNRGEC
B2: GOMP001_bsAb_019 (bispecific antibody, human IgG1, kappa, L234A L235A)
heavy 1: QVQLVQSGAEVKKPGASVKVSCKASGYTFTSHWMHWVRKAPGQGLEWIGEFNPSNGRTNYNEEFKSKATMTVDTSTNTAYMELSSLRSEDTAVYYCASRDYDYDGRYFDYWGQGTLVTVSSASTKGPSVFPLAPSSKSTSGGTAALGCLVADYFPEPVTVSWNSGALTSGVHTFPAVLQSSGLYSLSSVVTVPSSSLGTQTYICNVNHKPSNTKVDEKVEPKSCDKTHTCPPCPAPEAAGGPSVFLFPPKPKDTLMISRTPEVTCVVVDVSHEDPEVKFNWYVDGVEVHNAKTKPREEQYNSTYRVVSVLTVLHQDWLNGKEYKCKVSNKALPAPIEKTISKAKGQPREPQVYTLPPSREEMTDNQVSLTCLVKGFYPSDIAVEWESNGQPENNYKTTPPVLMSDGSFFLASKLTVDKSRWQQGNVFSCSVMHEALHNHYTQKSLSLSPG
light 1: B1 light 2 with D1R, R37D, D41K, E122K, S130R
heavy 2: EVQLVDSGGGLVQPGGSLRLSCSGSGFTFSSYWMSWVRYAPGKGLEWVANIKQDGSQKYYVDRVKGRFTISRDNVKNSLYLQMNSLRVEDTAVYYCARDESSSWYWYFDLWGRGTLVTVSSASTKGPSVFPLAPSSKSTSGGTAALGCLVKDYFPEPVTVSWNSGALTSGVHTFPAVLQSSGLYSLSSVVTVPSSSLGTQTYICNVNHKPSNTKVDKKVEPKSCDKTHTCPPCPAPEAAGGPSVFLFPPKPKDTLMISRTPEVTCVVVDVSHEDPEVKFNWYVDGVEVHNAKTKPREEQYNSTYRVVSVLTVLHQDWLNGKEYKCKVSNKALPAPIEKTISKAKGQPRRPRVYTLPPSREEMTKNQVSLVCLVKGFYPSDIAVEWESNGQPENNYKTTPPVLDSDGSFFLYSVLTVDKSRWQQGNVFSCSVMHEALHNHYTQKSLSLSPG
light 2: DIQMTQSPSTLSASVGDRVTLTCRASQNIVKWLAWYQRKPGDAPKLLIYKASSLESGVPSWFSGSGSGTEFTLTINSLQPDDFATYYCQQYYTYSRTFGQGTKVEIKRTVAAPSVFIFPPSDEQLKSGTASVVCLLNNFYPREAKVQWKVDNALQSGNSQESVTEQDSKDSTYSLSSTLTLSKADYEKHKVYACEVTHQGLSSPVTKSFNRGEC
B3: GOMP001_bsAb_017 (bispecific antibody, human IgG1, kappa, L234A L235A)
heavy 1: B2 heavy 1
light 1: B1 light 2 with D1R, R37D, D41K, E122K, S130R
heavy 2: EVQLVESGGDLVQPGRSLRLSCAASGFTFDDCVIHWVRYAPGKGLEWVSGITWNSGRIGYADRVKGRFTISRDNAKNSLYLQMNSLRVEDTALYYCAKEGNYDFWSTYYRGYFDLWGRGTLVTVSSASTKGPSVFPLAPSSKSTSGGTAALGCLVKDYFPEPVTVSWNSGALTSGVHTFPAVLQSSGLYSLSSVVTVPSSSLGTQTYICNVNHKPSNTKVDKKVEPKSCDKTHTCPPCPAPEAAGGPSVFLFPPKPKDTLMISRTPEVTCVVVDVSHEDPEVKFNWYVDGVEVHNAKTKPREEQYNSTYRVVSVLTVLHQDWLNGKEYKCKVSNKALPAPIEKTISKAKGQPRRPRVYTLPPSREEMTKNQVSLVCLVKGFYPSDIAVEWESNGQPENNYKTTPPVLDSDGSFFLYSVLTVDKSRWQQGNVFSCSVMHEALHNHYTQKSLSLSPG
light 2: DIQMTQSPSSLSASVGDRVTITCRASQGIRNDLGWYQRKPGDAPKRLIYAASSLQGGVPLRFSGSGSGTEFTLTISSLQPEDFATYYCLQHNSYPYTFGQGTKLEIKRTVAAPSVFIFPPSDEQLKSGTASVVCLLNNFYPREAKVQWKVDNALQSGNSQESVTEQDSKDSTYSLSSTLTLSKADYEKHKVYACEVTHQGLSSPVTKSFNRGEC
B4: GOMP001_bsAb_018 (bispecific antibody, human IgG1, kappa, L234A L235A)
heavy 1: B3 heavy 2
light 1: B3 light 2
heavy 2: B1 heavy 2
light 2: B1 light 2
B5: GOMP001_bsAb_020 (bispecific antibody, human IgG1, kappa, L234A L235A)
heavy 1: B2 heavy 2
light 1: B2 light 2
heavy 2: B1 heavy 2
light 2: B1 light 2
B6: GOMP001_bsAb_023 (bispecific antibody, human IgG1, kappa, L234A L235A)
heavy 1: B2 heavy 1
light 1: B1 light 2 with D1R, R37D, D41K, E122K, S130R
heavy 2: QGQLVESGGGVVQPGRSLRLSCEASGFTFRSYGMHWVRYPPGKGLEWVAIIWYDGGKKYYGDRVKGRFTISRDNPKNTLYLQMNSLRPEDTAVYYCMAYDYSNGFDIWGRGTMVTVSSASTKGPSVFPLAPSSKSTSGGTAALGCLVKDYFPEPVTVSWNSGALTSGVHTFPAVLQSSGLYSLSSVVTVPSSSLGTQTYICNVNHKPSNTKVDKKVEPKSCDKTHTCPPCPAPEAAGGPSVFLFPPKPKDTLMISRTPEVTCVVVDVSHEDPEVKFNWYVDGVEVHNAKTKPREEQYNSTYRVVSVLTVLHQDWLNGKEYKCKVSNKALPAPIEKTISKAKGQPRRPRVYTLPPSREEMTKNQVSLVCLVKGFYPSDIAVEWESNGQPENNYKTTPPVLDSDGSFFLYSVLTVDKSRWQQGNVFSCSVMHEALHNHYTQKSLSLSPG
light 2: DIVMTQTPLSSPVTLGQPASISCRSSQSFVHSDGSTYLSWLQRRPGDPPRLLIYKISNRFSGVPDRFSGRGAGTDFTLKISRVEAEDVGIYYCMQNTQFPYTFGQGTKLEIKRTVAAPSVFIFPPSDEQLKSGTASVVCLLNNFYPREAKVQWKVDNALQSGNSQESVTEQDSKDSTYSLSSTLTLSKADYEKHKVYACEVTHQGLSSPVTKSFNRGEC

The binders below were run against human EGFR, C-terminal eGFP-tagged, on CHO-K1 cells (human, UniProt P00533 25-1210) (assay: cell-based or functional assay).

Row | EC50 CHO-K1 EGFR Low (nM); T cell activation bioassay, luciferase [nM] | EC50 CHO-K1 EGFR Med (nM); T cell activation bioassay, luciferase [nM] | Binder
1 | 0.0531 | 0.00316 | B1
2 | 4.27 | 0.257 | B2
3 | 0.945 | 0.102 | B3
4 | 0.377 | 0.0442 | B4
5 | 0.235 | 0.0102 | B5
6 | 8.34 | 1.71 | B6
